Source: patent publication US11827911B2, “Chimeric bacteriophage lysin with activity against Staphylococci bacteria” (priority 2008, dated 2023)

Tests used:
MRSA strain COL = experiment: Checkerboard broth-microdilution assay; format: cell-based, Staphylococcus aureus; conditions: Staphylococcus aureus, read-out: MIC
Text: We used the checkerboard broth-microdilution assay to test the interaction of ClyS with vancomycin and with oxacillin. […] Isobolograms for ClyS with vancomycin and ClyS with oxacillin was plotted by transcribing the enzyme concentrations along the inhibitory line on the microtiter plate in an x/y plot.

MRSA strain MW2 = experiment: Systemic MRSA infection model, survival; format: in vivo, FVB/NJ mice; conditions: 100 μg/mouse of oxacillin alone, 10 days
Method: In order to assess whether ClyS treatment could prevent death resulting from systemic MRSA infections, 4 week old FVB/NJ mice were intraperitoneally injected with ˜5×10^5 CFU of the community-acquired MRSA strain MW2 in 5% mucin. Preliminary experiments determined that 5×10^5 CFU was 10× the LD100 dose for a twenty-four hour period. Furthermore, within 3 hours of IP injection the MRSA infection was systemic. i.e., MRSA were recovered in high numbers from heart, liver, spleen, and kidney (data not shown). Treatment occurred three hours post-infection, with either 20 mM phosphate buffer or 1 mg of ClyS in 20 mM phosphate buffer injected IP (intraperitoneally). Mice were then monitored for survival over ten days. The results from three independent experiments were combined (ClyS treatment, n=16; buffer treatment, n=14) and the mice survival data plotted with a Kaplan Meier Survival curve (FIG. 12), Within twenty-four hours all of the control mice died of bacterial sepsis, while only 2/16 of ClyS treated mice died at forty-eight hours, and the remaining mice (14/16, 88%) survived over the course of the experiments (FIG. 12).
To determine if this effect could be seen in our systemic MRSA infection model, FVB/NJ mice were intraperitoneally injected with ˜5×10^5 CFUs of the MRSA strain MW2 as above. Three hours post infection mice were treated in parallel, with a lower IP dose of 130 μg/mouse of ClyS combined with different concentrations of oxacillin (10-100 μg/mouse) or buffer alone controls. Preliminary experiments determined that an ED30 dose of ClyS (130 μg/mouse) had minimal efficacy to evaluate the effect of combinatorial treatment with oxacillin (data not shown). Mice were monitored for survival for 10 days and the results of 5 independent experiments were combined and plotted in a Kaplan Meier Survival curve (FIG. 14).

staphylococcal strains = conditions: by altering peptide cross-bridges; cited from earlier work
[1] = Solubility of expressed lysins and chimeras; conditions: qualitative
Method: In another embodiment, the lysin is a chimeric protein that comprises an endopeptidase domain of the S. aureus Twort lysin upstream of the phiNM3 CWT domain (SEQ ID NO:1). The chimeric polypeptide is preferably sufficiently soluble in phosphate buffered saline (PBS). Preferred levels of solubility in PBS for the chimeric lysins is at least about 1 mg/ml and more preferably at least about 3 mg/mL. in PBS. […] One example of such a lysin is provided in SEQ ID NO:2 (AD127), shown in FIG. 5A and consisting of the Twort lysin endopeptidase domain attached to the phiNM3 CWT domain (SEQ ID NO:1). The isolated polypeptide of SEQ ID NO:2 (AD 127) was constructed by engineering S. epidermidis autolysin amidase and Twort lysin endopeptidase domains upstream of phiNM3 CWT domain, respectively.
Traditionally, Bacillus-specific lysins are expressed at high levels and are soluble in E. coli. Therefore, our first attempt was to engineer a 16-amino acid peptide (4) that is conserved in several S. aureus-specific lysins (Lu J Z, Fujiwara T, Komatsuzawa H, Sugai M, Sakon J. 2006. Cell wall-targeting domain of glycylglycine endopeptidase distinguishes among peptidoglycan cross-bridges. (Lue et al. (2006) J. Biol. Chem. 281(1):549-58) The catalytic domain of the Bacillus-specific lysin PlyB was used to generate chimera AD 103 (FIG. 4) (SEQ ID NO: 13). The chimeras were tested for expression, solubility and activity. Then the entire C-terminal CWT domain of PlyB (6) was replaced by the putative C-terminal domain of S. aureus phage Twort lysin (8) to obtain AD 105 (SEQ ID NO: 14). […] Since the lysostaphin catalytic domain […] (10) in AD 112 was of bacterial origin, we attempted to engineer a phage-derived catalytic domain upstream of the lysostaphin CWT. For this, the endopeptidase domain in Twort lysin (14) was used to construct chimera AD 119 (SEQ ID NO:3).

S. epidermidis = experiment: Binding of FITC-labeled phiNM3 CWT to bacterial cells, fluorescence microscopy; conditions: FITC-labeled protein 50 μg, 10 minutes
Text: (§1) Most preferably, the binding molecule is a soluble binding domain of a bacterial lysin comprising a polypeptide including an amino acid sequence providing specific binding to S. aureus, such as SEQ ID NO:1 (phiNM3 CWT domain). For example, the lysin preferably includes the polypeptide sequence of S. aureus phage phiNM3 lysin (SEQ ID NO:1) (protein accession number YP_908849). The phiNM3 lysin CWT domain (SEQ ID NO:1) corresponding to amino acid residues 158-251 was cloned and expressed. […] FIG. 2A is […] showing the protein of SEQ ID NO:1 in a second column next to a set of marker proteins in a first column. […] Group A streptococci, E. coli and Bacillus cereus were used as controls.
(§2) Fluorescent labeling and binding analyses were performed on phiNM3 CWT. S. aureus strain 8325-4 genomic DNA was used to amplify the putative CWT of phiNM3 lysin using primers NM3-FWD […]-3′ (SEQ ID NO:10) and NM3-REV 5′-[…]-3′(SEQ ID NO:11). The resulting amplicon was cloned into the arabinose-inducible expression vector pBAD24. Positive clones containing the insert were confirmed by sequencing. The approximately 10-kDa phiNM3 CWT protein was expressed and the protein was purified in one step by cation-exchange chromatography. The purified protein (1 mg/ml) was incubated with 10 μl of FITC (1 mg/ml) for 1 hour. Excess FITC was removed on a desalting column. The labeled-protein (50 μg) was incubated with bacterial cells for 10 minutes, washed 3× with phosphate-buffered saline (pH 7.4) and observed under fluorescence microscope.

E. coli = experiment: as above; conditions: FITC-labeled protein 50 μg, 10 minutes
Text: as §1, §2

Group A streptococci = experiment: as above; conditions: FITC-labeled protein 50 μg, 10 minutes
Text: as §1, §2

Bacillus cereus = experiment: as above; conditions: FITC-labeled protein 50 μg, 10 minutes
Text: as §1, §2

S. aureus = experiment: as above; design: species or system Staphylococcus aureus; conditions: FITC-labeled protein 50 μg, 10 minutes; single or mixed populations
Text: as §1
as §2, with “The approximately 10-kDa phiNM3 CWT protein was expressed and the protein was purified in one step by cation-exchange chromatography. The purified protein (1 mg/ml) was incubated with 10 μl of FITC (1 mg/ml) for 1 hour. Excess FITC was removed on a desalting column.” left out

Cc1onc(-c2ccccc2)c1C(=O)N[C@@H]1C(=O)N2[C@@H]1SC(C)(C)[C@@H]2C(=O)O [oxacillin, reference compound]
MIC (MRSA strain COL): 32 µg/mL | survival (MRSA strain MW2): 35%

lysostaphin: staphylolytic enzyme produced by Staphylococcus simulans
frequency of developing resistance (staphylococcal strains): 10^−6

B1: phiNM3 CWT domain: cell wall targeting domain, amino acid residues 158-251 of S. aureus phage phiNM3 lysin, approximately 10-kDa; tested FITC-labeled (protein)
chain: GKSASKITVGSKAPYNLKWSKGAYFNAKIDGLGATSATRYGDNRTNYRFDVGQAVYAPGTLIYVFEIIDGWCRIYWNNHNEWIWHERLIVKEVF
modifications: FITC label; Staphylococcus aureus phage phiNM3
notes: cell wall targeting domain, amino acid residues 158-251 of S. aureus phage phiNM3 lysin, approximately 10-kDa; tested FITC-labeled
solubility of the expressed protein [1]: highly soluble | binding to S. epidermidis cells (S. epidermidis): bound specifically | binding to E. coli (E. coli): not observed | binding to streptococci (Group A streptococci): not observed | binding to Bacillus (Bacillus cereus): not observed | binding to S. aureus cells (S. aureus): bound specifically
